Source: patent US20220298218A1 (ANTAG THERAPEUTICS, published 2022)
*1 amine or outer side, *2 acyl side, *3 side chain or, on linkers, in order; H or OH if unused. Where no end group is shown, it is not given here. Side-chain parts run from the residue outwards. [ ]: non-standard residue; d: D form. The star is where a group is joined. phenyl lactic acid = phenyl lactic acid at the N-terminus; C16 diacid = O=C(O)CCCCCCCCCCCCCCC(=O)*; γGlu = O=C(O)[C@H](CCC(=O)[*:2])N[*:1]; Nle = CCCC[C@H](N)C(=O)O; Aib = CC(C)(N)C(=O)O

Target: T1, human GIP receptor (human, UniProt P48546 22-466)
T1 sequence (looked up): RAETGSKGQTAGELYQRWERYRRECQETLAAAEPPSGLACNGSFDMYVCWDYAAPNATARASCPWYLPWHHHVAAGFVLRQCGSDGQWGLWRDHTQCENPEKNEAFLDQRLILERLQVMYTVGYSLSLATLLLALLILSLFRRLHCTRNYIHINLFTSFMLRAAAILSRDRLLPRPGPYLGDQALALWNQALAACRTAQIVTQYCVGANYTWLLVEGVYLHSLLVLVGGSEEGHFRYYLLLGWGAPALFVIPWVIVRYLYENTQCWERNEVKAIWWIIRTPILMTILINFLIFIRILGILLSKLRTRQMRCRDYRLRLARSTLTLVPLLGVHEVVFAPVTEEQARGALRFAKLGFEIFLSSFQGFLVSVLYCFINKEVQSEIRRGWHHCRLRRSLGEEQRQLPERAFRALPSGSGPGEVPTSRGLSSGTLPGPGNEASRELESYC
Assay: cell-based or functional assay

B1: AT669 (peptide)
peptide: EGTFISDYSIA[Nle]DKIK(C16 diacid)QQDFVEWLLAQKPSSGAPPPS-OH
modifications: N-terminus assumed
SMILES: CCCC[C@H](NC(=O)[C@H](C)NC(=O)[C@@H](NC(=O)[C@H](CO)NC(=O)[C@H](Cc1ccc(O)cc1)NC(=O)[C@H](CC(=O)O)NC(=O)[C@H](CO)NC(=O)[C@@H](NC(=O)[C@H](Cc1ccccc1)NC(=O)[C@@H](NC(=O)CNC(=O)[C@@H](N)CCC(=O)O)[C@@H](C)O)[C@@H](C)CC)[C@@H](C)CC)C(=O)N[C@@H](CC(=O)O)C(=O)N[C@@H](CCCCN)C(=O)N[C@H](C(=O)N[C@@H](CCCCNC(=O)CCCCCCCCCCCCCCC(=O)O)C(=O)N[C@@H](CCC(N)=O)C(=O)N[C@@H](CCC(N)=O)C(=O)N[C@@H](CC(=O)O)C(=O)N[C@@H](Cc1ccccc1)C(=O)N[C@H](C(=O)N[C@@H](CCC(=O)O)C(=O)N[C@@H](Cc1c[nH]c2ccccc12)C(=O)N[C@@H](CC(C)C)C(=O)N[C@@H](CC(C)C)C(=O)N[C@@H](C)C(=O)N[C@@H](CCC(N)=O)C(=O)N[C@@H](CCCCN)C(=O)N1CCC[C@H]1C(=O)N[C@@H](CO)C(=O)N[C@@H](CO)C(=O)NCC(=O)N[C@@H](C)C(=O)N1CCC[C@H]1C(=O)N1CCC[C@H]1C(=O)N1CCC[C@H]1C(=O)N[C@@H](CO)C(=O)O)C(C)C)[C@@H](C)CC
cAMP agonism % Emax: 0%
cAMP antagonism: 3.35 nM
cAMP antagonism % inhib: 95%
cAMP antagonism pIC50: 8.5

EGTFISDYSI[Aib]MDKIK(C16 diacid)QQDFVEWLLAQKPSSGAPPPS-OH [AT665]
cAMP agonism % Emax: 0%
cAMP antagonism: 0.15 nM
cAMP antagonism % inhib: 88%
cAMP antagonism pIC50: 9.8

EGTFISTYK([γGlu-C16 diacid])IALDKIHQQDFVEWLLAQKPSSGAPPPS-OH [AT647]
cAMP agonism % Emax: 0%
cAMP antagonism: 18.8 nM
cAMP antagonism % inhib: 100%
cAMP antagonism pIC50: 7.7

B2: AT646 (peptide)
peptide: GETFISTYSIALDKIK(C16 diacid)QQDFVEWLLAQKPSSGAPPPS-OH
modifications: N-terminus assumed
SMILES: CC[C@H](C)[C@H](NC(=O)[C@H](CO)NC(=O)[C@H](Cc1ccc(O)cc1)NC(=O)[C@@H](NC(=O)[C@H](CO)NC(=O)[C@@H](NC(=O)[C@H](Cc1ccccc1)NC(=O)[C@@H](NC(=O)[C@H](CCC(=O)O)NC(=O)CN)[C@@H](C)O)[C@@H](C)CC)[C@@H](C)O)C(=O)N[C@@H](C)C(=O)N[C@@H](CC(C)C)C(=O)N[C@@H](CC(=O)O)C(=O)N[C@@H](CCCCN)C(=O)N[C@H](C(=O)N[C@@H](CCCCNC(=O)CCCCCCCCCCCCCCC(=O)O)C(=O)N[C@@H](CCC(N)=O)C(=O)N[C@@H](CCC(N)=O)C(=O)N[C@@H](CC(=O)O)C(=O)N[C@@H](Cc1ccccc1)C(=O)N[C@H](C(=O)N[C@@H](CCC(=O)O)C(=O)N[C@@H](Cc1c[nH]c2ccccc12)C(=O)N[C@@H](CC(C)C)C(=O)N[C@@H](CC(C)C)C(=O)N[C@@H](C)C(=O)N[C@@H](CCC(N)=O)C(=O)N[C@@H](CCCCN)C(=O)N1CCC[C@H]1C(=O)N[C@@H](CO)C(=O)N[C@@H](CO)C(=O)NCC(=O)N[C@@H](C)C(=O)N1CCC[C@H]1C(=O)N1CCC[C@H]1C(=O)N1CCC[C@H]1C(=O)N[C@@H](CO)C(=O)O)C(C)C)[C@@H](C)CC
cAMP agonism % Emax: 0%
cAMP antagonism: 10 nM
cAMP antagonism % inhib: 96%
cAMP antagonism pIC50: 8

B3: AT668 (peptide)
peptide: EGTFISDYSIALDKIK(C16 diacid)QQDFVEWLLAQKPSSGAPPPS-OH
modifications: N-terminus assumed
SMILES: CC[C@H](C)[C@H](NC(=O)[C@H](CO)NC(=O)[C@H](Cc1ccc(O)cc1)NC(=O)[C@H](CC(=O)O)NC(=O)[C@H](CO)NC(=O)[C@@H](NC(=O)[C@H](Cc1ccccc1)NC(=O)[C@@H](NC(=O)CNC(=O)[C@@H](N)CCC(=O)O)[C@@H](C)O)[C@@H](C)CC)C(=O)N[C@@H](C)C(=O)N[C@@H](CC(C)C)C(=O)N[C@@H](CC(=O)O)C(=O)N[C@@H](CCCCN)C(=O)N[C@H](C(=O)N[C@@H](CCCCNC(=O)CCCCCCCCCCCCCCC(=O)O)C(=O)N[C@@H](CCC(N)=O)C(=O)N[C@@H](CCC(N)=O)C(=O)N[C@@H](CC(=O)O)C(=O)N[C@@H](Cc1ccccc1)C(=O)N[C@H](C(=O)N[C@@H](CCC(=O)O)C(=O)N[C@@H](Cc1c[nH]c2ccccc12)C(=O)N[C@@H](CC(C)C)C(=O)N[C@@H](CC(C)C)C(=O)N[C@@H](C)C(=O)N[C@@H](CCC(N)=O)C(=O)N[C@@H](CCCCN)C(=O)N1CCC[C@H]1C(=O)N[C@@H](CO)C(=O)N[C@@H](CO)C(=O)NCC(=O)N[C@@H](C)C(=O)N1CCC[C@H]1C(=O)N1CCC[C@H]1C(=O)N1CCC[C@H]1C(=O)N[C@@H](CO)C(=O)O)C(C)C)[C@@H](C)CC
cAMP agonism % Emax: 0%
cAMP antagonism: 0.944 nM
cAMP antagonism % inhib: 92%
cAMP antagonism pIC50: 9

{phenyl lactic acid}-PGTFISDYSIAMDKIKQQDFVNWLLAQKPSSGAPPPSK(C16 diacid)-NH2 (not fully specified) [AT652]
cAMP agonism % Emax: 17%
cAMP antagonism: 10.6 nM
cAMP antagonism % inhib: 60%
cAMP antagonism pIC50: 8

B4: AT650 (peptide)
peptide: EGTFISDYSIAMDKIK(C16 diacid)QQDFVNWLLAQKPSSGAPPPS-NH2
modifications: N-terminus assumed
SMILES: CC[C@H](C)[C@H](NC(=O)[C@H](CO)NC(=O)[C@H](Cc1ccc(O)cc1)NC(=O)[C@H](CC(=O)O)NC(=O)[C@H](CO)NC(=O)[C@@H](NC(=O)[C@H](Cc1ccccc1)NC(=O)[C@@H](NC(=O)CNC(=O)[C@@H](N)CCC(=O)O)[C@@H](C)O)[C@@H](C)CC)C(=O)N[C@@H](C)C(=O)N[C@@H](CCSC)C(=O)N[C@@H](CC(=O)O)C(=O)N[C@@H](CCCCN)C(=O)N[C@H](C(=O)N[C@@H](CCCCNC(=O)CCCCCCCCCCCCCCC(=O)O)C(=O)N[C@@H](CCC(N)=O)C(=O)N[C@@H](CCC(N)=O)C(=O)N[C@@H](CC(=O)O)C(=O)N[C@@H](Cc1ccccc1)C(=O)N[C@H](C(=O)N[C@@H](CC(N)=O)C(=O)N[C@@H](Cc1c[nH]c2ccccc12)C(=O)N[C@@H](CC(C)C)C(=O)N[C@@H](CC(C)C)C(=O)N[C@@H](C)C(=O)N[C@@H](CCC(N)=O)C(=O)N[C@@H](CCCCN)C(=O)N1CCC[C@H]1C(=O)N[C@@H](CO)C(=O)N[C@@H](CO)C(=O)NCC(=O)N[C@@H](C)C(=O)N1CCC[C@H]1C(=O)N1CCC[C@H]1C(=O)N1CCC[C@H]1C(=O)N[C@@H](CO)C(N)=O)C(C)C)[C@@H](C)CC
cAMP agonism % Emax: 0%
cAMP antagonism: 3.69 nM
cAMP antagonism % inhib: 94%
cAMP antagonism pIC50: 8.4

EGTFISDYSI[Aib][Nle]DKIK(C16 diacid)QQDFVEWLLAQKPSSGAPPPS-OH [AT667]
cAMP agonism % Emax: 4%
cAMP antagonism: 0.736 nM
cAMP antagonism % inhib: 86%
cAMP antagonism pIC50: 9.1

B5: AT670 (peptide)
peptide: EGTFISDYSIAKDKIK(C16 diacid)QQDFVEWLLAQKPSSGAPPPS-OH
modifications: N-terminus assumed
SMILES: CC[C@H](C)[C@H](NC(=O)[C@H](CO)NC(=O)[C@H](Cc1ccc(O)cc1)NC(=O)[C@H](CC(=O)O)NC(=O)[C@H](CO)NC(=O)[C@@H](NC(=O)[C@H](Cc1ccccc1)NC(=O)[C@@H](NC(=O)CNC(=O)[C@@H](N)CCC(=O)O)[C@@H](C)O)[C@@H](C)CC)C(=O)N[C@@H](C)C(=O)N[C@@H](CCCCN)C(=O)N[C@@H](CC(=O)O)C(=O)N[C@@H](CCCCN)C(=O)N[C@H](C(=O)N[C@@H](CCCCNC(=O)CCCCCCCCCCCCCCC(=O)O)C(=O)N[C@@H](CCC(N)=O)C(=O)N[C@@H](CCC(N)=O)C(=O)N[C@@H](CC(=O)O)C(=O)N[C@@H](Cc1ccccc1)C(=O)N[C@H](C(=O)N[C@@H](CCC(=O)O)C(=O)N[C@@H](Cc1c[nH]c2ccccc12)C(=O)N[C@@H](CC(C)C)C(=O)N[C@@H](CC(C)C)C(=O)N[C@@H](C)C(=O)N[C@@H](CCC(N)=O)C(=O)N[C@@H](CCCCN)C(=O)N1CCC[C@H]1C(=O)N[C@@H](CO)C(=O)N[C@@H](CO)C(=O)NCC(=O)N[C@@H](C)C(=O)N1CCC[C@H]1C(=O)N1CCC[C@H]1C(=O)N1CCC[C@H]1C(=O)N[C@@H](CO)C(=O)O)C(C)C)[C@@H](C)CC
cAMP agonism % Emax: 0%
cAMP antagonism: 10 nM
cAMP antagonism % inhib: 92%
cAMP antagonism pIC50: 8
